Substitutions are numbered along the chain they refer to. Names and notes keep the numbering of the source.
Experiments:
Test in all cases: cell_activity; human T cells, 1 ug mRNA, day 3
Conditions in all cases: tags: N-terminal SV40 NLS
B2M 13-14x.338 = molecular target: T1, B2M 13-14x.338 (Artificial Sequence)
T1 chain: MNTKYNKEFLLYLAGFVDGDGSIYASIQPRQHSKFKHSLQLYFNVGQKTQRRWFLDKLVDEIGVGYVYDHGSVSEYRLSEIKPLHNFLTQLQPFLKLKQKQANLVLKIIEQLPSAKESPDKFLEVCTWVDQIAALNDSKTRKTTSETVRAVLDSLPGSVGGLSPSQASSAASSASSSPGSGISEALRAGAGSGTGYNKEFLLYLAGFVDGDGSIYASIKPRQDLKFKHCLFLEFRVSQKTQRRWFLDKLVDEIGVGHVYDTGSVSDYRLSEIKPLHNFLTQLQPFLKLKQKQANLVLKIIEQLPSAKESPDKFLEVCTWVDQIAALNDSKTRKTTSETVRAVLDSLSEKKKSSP
Outline: (§1)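 Donor T cells activated 3 days with anti-CD3/anti-CD28, then electroporated with 1 μg meganuclease mRNA. Knockout scored by loss of β-2 microglobulin surface staining on CD3+ cells.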

B2M 13-14x.556 = molecular target: T2, B2M 13-14x.556 (Artificial Sequence)
T2 chain: T1 chain with H32R, S217G, D223S, C229G, F231T, S237A, T261F, D266E
Outline: as §1

B2M 13-14x.465 = molecular target: T3, B2M 13-14x.465 (Artificial Sequence)
T3 chain: T1 chain with H32A, S33A, S38T, R221G, D223C, C229A, F231Y, S237T
Outline: as §1

B2M 13-14x.378 = molecular target: T4, B2M 13-14x.378 (Artificial Sequence)
T4 chain: T1 chain with H32A, S33A, S38T, R221G, D223N, C229N, T261A
Outline: as §1

B2M 13-14x.365 = molecular target: T5, B2M 13-14x.365 (Artificial Sequence)
T5 chain: T1 chain with D223R, C229Q, S237T, T261H, D266E
Outline: as §1

B1: B2M 13-14 recognition sequence (dsDNA)
DNA 1: CTATCTCTTGTACTACACTGAA
DNA 2: TTCAGTGTAGTACAAGAGATAG
For B1, the activity (B2M 13-14x.338) was 4.68 % B2M-negative, the activity (B2M 13-14x.556) was 11.8 % B2M-negative and the activity (B2M 13-14x.465) was 30.8 % B2M-negative. The activity (B2M 13-14x.378) was 3.54 % B2M-negative and the activity (B2M 13-14x.365) was 27.4 % B2M-negative.
